Values belong to the binder of their own block, whether it stands above or below them.
Assays:
[1] = molecular target: T1, N-terminally FLAG-tagged full length human TACI, expressed on 293EBNA cells (plasmid pJST552) (human, UniProt O14836 1-293); assay: FACS on 293EBNA cells transfected with pJST552; rabbit anti-murine APRIL and donkey anti-rabbit-PE
T1 construct: also called flag-tagged full length TACI; TACI transfected cells; not shown: N-terminal FLAG tag (and any leader) of the pJST552 insert
T1 sequence: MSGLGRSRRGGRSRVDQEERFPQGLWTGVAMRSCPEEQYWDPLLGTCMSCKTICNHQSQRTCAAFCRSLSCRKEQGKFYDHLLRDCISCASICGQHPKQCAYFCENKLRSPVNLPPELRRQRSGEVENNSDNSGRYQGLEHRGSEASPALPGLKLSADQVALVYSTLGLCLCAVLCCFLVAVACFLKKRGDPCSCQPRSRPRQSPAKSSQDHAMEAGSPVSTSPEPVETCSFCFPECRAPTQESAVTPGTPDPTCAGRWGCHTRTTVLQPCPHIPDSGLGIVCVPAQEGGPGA
Method: FIG. 8 is a schematic representation of purified myc-tagged murine APRIL binding to TACI transfected cells. 293EBNA cells were transfected with expression plasmid pJST552 that expressed FLAG-tagged full length human TACI. Cells were harvested 48 hours later using 5 mM EDTA and stained with myc-tagged murine APRIL at various concentrations. No protein control was stained with detection reagents (rabbit anti-murine APRIL and donkey anti-rabbit-PE (Jackson Immnunoresearch)). Staining in FL1 of protein encoded by the cotransfected GFP expression plasmid illustrates expression efficiency.
293EBNA cells were co-transfected with a plasmids expressing full length N-terminally FLAG tagged human TACI (pJST552)(see FIG. 2), and a GFP marker, (AN050). Transfections were performed using Lipofectamine 2000 (LifeTechnologies) according to manufacturer's conditions. Transfection media was DMEM supplemented with 10% FBS, 4 mM glutamine, and 50 μM Z-VAD (BACHEM Bioscience Inc.) Cells were harvested with PBS supplemented with 5 mM EDTA at 24 hours post-transfection. Cells were washed in FACS buffer (PBS-10% FBS-0.02% NaN₃) and resuspended at a density of 5×10⁶ cells/mL. […] The samples were analyzed by FACS and plotted (FIG. 8). Cell gate analyzed is shown as R1. […]

[2] = molecular target: T2, FLAG-tagged soluble muBAFF (murine, UniProt Q9WU72 127-309, limits assumed); assay: co-immunoprecipitation on protein A-Sepharose, anti-FLAG M2 Western blot
T2 construct: not shown: FLAG tag
T2 sequence (Q9WU72 127-309 limits assumed): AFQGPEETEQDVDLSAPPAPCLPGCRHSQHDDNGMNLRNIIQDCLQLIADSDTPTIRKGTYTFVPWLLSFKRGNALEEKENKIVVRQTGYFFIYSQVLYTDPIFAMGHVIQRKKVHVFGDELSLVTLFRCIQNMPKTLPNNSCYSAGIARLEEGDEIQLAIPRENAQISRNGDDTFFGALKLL
Method: 250 μl of Optimem containing hTACI(1-160)-Ig was mixed with various FLAG ligands of the TNF family. Some of the ligands were in Optimem while others were anti-FLAG (mAb M2)-purified. The common characteristic was that the amount used was empirically the same (500 ng for purified ligands, i.e. hBAFF, muBAFF, TRAIL, FasL, EDA). Ligands were produced in bacteria (HBAFF, TRAIL) or transiently expressed in 293 EBNA cells (all others). Control Receptors-Fc were mostly used as Optimem supernates, except TNFR1, OX40, LTBR, which were purified over protein-A columns. 1 μg of purified receptors was used. Receptor-Fc proteins (about 1 μg) were mixed with FLAG-ligands (about 500 ng). Volume was adjusted to 1.2 ml with PBS and 5 μl of protein A-Sepharose was added. Incubation was performed for 1 h at 4° C. on a wheel. Beads were harvested by centrifugation and loaded onto a minicolumn (yellow tips with 1 mm diameter frit). Washes were performed by applying vacuum at the bottom of the column to aspirate medium and 2 times 400 μl PBS washes. The dried beads were eluted with 20 μl of Citrate-NaOH pH 2.7 and the eluate was neutralized with 6 μl of 1M Tris-HCl pH 9.0. 10 μl 3x sample buffer plus DTT was added, the sample was boiled and 22 μl loaded for Western blot analysis. […] ECL was used to illuminate the signal. […]

binding result [1]: binds
B1: myc-tagged murine APRIL (A88), expressed in Pichia pastoris (plasmid pCMM276) (ligand)
chain: EQKLISEEDLNGGGGSKELAVLTQKHKKKHSVLHLVPVNITSKDSDVTEVMWQPVLRRGRGLEAQGDIVRVWDTGIYLLYSQVLFHDVTFTMGQVVSREGQGRRETLFRCIRSMPSDPDRAYNSCYSAGVFHLHQGDIITVKIPRANAKLSLSPHGTFLGFVKL
modifications: glycosylated (as printed in paragraph 69)
notes: also called myc-muAPRIL; Myc-Murine APRIL A88

B2: human TACI(1-160)-Ig fusion protein (plasmid PS882) (Fc fusion)
chain: MSGLGRSRRGGRSRVDQEERFPQGLWTGVAMRSCPEEQYWDPLLGTCMSCKTICNHQSQRTCAAFCRSLSCRKEQGKFYDHLLRDCISCASICGQHPKQCAYFCENKLRSPVNLPPELRRQRSGEVENNSDNSGRYQGLEHRGSEASPALPGLKLSADQV
notes: Used as conditioned medium (Optimem) of 293 cells; also called hTACI(1-160)-Ig; soluble hTACI(1-160)-Ig; not shown: human IgG Fc
binding result [2]: no binding (tested: 500 ng purified ligand)
